{
  "source": "patent US20240251767A1",
  "key": {"[1]": {"biological_target": "SARS-CoV-2 Spike (S) protein with an inactivated furin site on HEK293-Spike cells (293-SARS2-S-dfur, (SARS-CoV-2) (UniProt P0DTC2))"}, "[2]": {"biological_target": "SARS-Cov2 Spike Active Trimer SAT (R&D Systems; Catalog No. 10549-CV) (SARS-CoV2) (UniProt P0DTC2)"}, "[3]": {"biological_target": "SARS-Cov2 Spike Active Trimer SAT (R&D Systems; Catalog No. 10549-CV) (SARS-CoV2) (UniProt P0DTC2)", "assay": "ELISA, serially diluted purified Nb-Fc on SAT antigen"}, "[4]": {"biological_target": "SARS-Cov2 Spike Active Trimer SAT (R&D Systems; Catalog No. 10549-CV) (SARS-CoV2) (UniProt P0DTC2)", "assay": "SPR (Biacore)"}, "[5]": {"biological_target": "SARS-Cov2 Spike Active Trimer SAT (R&D Systems; Catalog No. 10549-CV) (SARS-CoV2) (UniProt P0DTC2)", "assay": "SPR (Carterra)"}, "[6]": {"biological_target": "SARS-Cov2 Spike Active Trimer SAT (R&D Systems; Catalog No. 10549-CV) (SARS-CoV2) (UniProt P0DTC2)", "remark": "listed apart in the source"}},
  "note": "Read-outs that look alike come from different tables or passages of the source.",
  "data": [
    {"substance": "human SAT Nb-Fc control VH-Ab-8 (HAb8-S) (Fc fusion)", "values": [
      {"measurement": "GMFI", "setting": "[1]", "value": 430},
      {"measurement": "GMFI Ratio", "setting": "[1]", "value": 21.1},
      {"measurement": "Response", "setting": "[2]", "value": 0.489},
      {"measurement": "koff", "setting": "[2]", "value": 0.00294, "unit": "s⁻¹"},
      {"measurement": "kon", "setting": "[2]", "value": 149000, "unit": "M⁻¹ s⁻¹"},
      {"measurement": "EC50", "setting": "[3]", "value": 0.018, "unit": "nM"},
      {"measurement": "Kd", "setting": "[4]", "value": 5.7, "unit": "nM"},
      {"measurement": "Kd", "setting": "[5]", "value": 37.3, "unit": "nM"},
      {"measurement": "Kd", "setting": "[6]", "value": 19.8, "unit": "nM"}
    ]}
  ]
}
